Reference: PMC2976518
“And” between values parts separate entries of the source, which are not always exact repeats. Equal entries are not always repeated. Where two headings read alike, the source gives them in different places.

Experiments:
[1] = molecular target: I100T Sin (mildly activated Sin mutant) (Staphylococcus aureus (plasmid pI9789)); assay: AUC
[2] = molecular target: I100T Sin (mildly activated Sin mutant) (Staphylococcus aureus (plasmid pI9789)); assay: AUC; remark: listed apart in the source
[3] = molecular target: S9A/R54E/Q115R Sin (highly activated Sin mutant with the active site serine changed) (Staphylococcus aureus (plasmid pI9789)); assay: AUC
[4] = molecular target: S9A/R54E/Q115R Sin (highly activated Sin mutant with the active site serine changed) (Staphylococcus aureus (plasmid pI9789)); assay: AUC; remark: listed apart in the source
Sin S9A/R54E/Q115R = Sin S9A/R54E/Q115R (Staphylococcus aureus (plasmid pI9789), UniProt Q53757 1-202, S9A;R54E;Q115R); assay: AUC sedimentation velocity and equilibrium
Sin I100T = Sin I100T (Staphylococcus aureus (plasmid pI9789), UniProt Q53757 1-202, I100T); assay: AUC sedimentation velocity

With “I100T Sin (mildly activated Sin mutant) (enzyme)” the stoichiometry N [1] was 2 and the stoichiometry N [2] was 2.

“S9A/R54E/Q115R Sin (highly activated Sin mutant with the active site serine changed) (enzyme)” was tested, and the Kd [3] was 400 nM, the stoichiometry N [3] was 2 and 4 and the Kd [4] was 450 nM.

B1: 52-mer site I dsDNA (AUC) (dsDNA)
DNA 1: GCCTAGTTCTTTGTGAAATTTGGGTATACCCTAATCATACAAGCTTGATCTG
DNA 2: CAGATCAAGCTTGTATGATTAGGGTATACCCAAATTTCACAAAGAACTAGGC
B1: binds (Sin S9A/R54E/Q115R); binds (Sin I100T).
